The conditions of this data set: Hordeum vulgare, MES 450 mM, reversible: yes, whole UniProt chain shown; for Tm / unfolding enthalpy (calorimetric) / unfolding enthalpy (van 't Hoff): Thermal, DSC.
Setting [1] is: pH 6.3, 25 °C, GdnHCl, Fluorescence.

B1: Subtilisin-chymotrypsin inhibitor-2A wild type, P01053 (protein)
chain: MSSVEKKPEGVNTGAGDRHNLKTEWPELVGKSVEEAKKVILQDKPEAQIIVLPVGTIVTMEYRIDRVRLFVDKLDNIAQVPRVG
In general, Tm refers to the temperature at which the thermal transition is half complete. B1: for the setting “pH 3”, the Tm was found to be 64 °C, the “unfolding enthalpy (calorimetric)” value was 61 kcal/mol and the “unfolding enthalpy (van 't Hoff)” value amounted to 61.2 kcal/mol. For the same protein, where the note is “pH 3.5”, the Tm was 73.8 °C, the “unfolding enthalpy (calorimetric)” value worked out at 67 kcal/mol and the “unfolding enthalpy (van 't Hoff)” value amounted to 66.9 kcal/mol. Also, under setting [1], the denaturant m value was determined as 1.89 kcal/mol/M, the “denaturant midpoint (higher = more stable)” value is 3.99 M and the unfolding free energy stood at 7.53 kcal/mol.
